From patent publication US20250215089A1 (HARBOUR BIOMED SHANGHAI, published 2025)

Tests used:
cynomolgus monkey CD40 = target: T1, cynomolgus monkey CD40 (cynomolgus monkey); assay: FACS, CHO-K1/cyCD40 cells
T1 construct: whole, on cells; also called cyCD40
Description: (§1) The cells were incubated at 4° C. for 1 hours in the dark. After the incubation, the cells were rinsed twice by adding pre-chilled PBS at 100 μL/well, and centrifuged at 500 g at 4° C. for 5 minutes, and the supernatant was discarded. Then, a fluorescent secondary antibody (goat anti-human IgG (H+L) secondary antibody, Alexa Fluor® 488 conjugate, Invitrogen, #A11013, 1:1000 dilution) was added at 100 μL/well, and the cells were incubated at 4° C. for 30 minutes in the dark. The cells were washed twice with pre-chilled PBS at 200 μL/well, and centrifuged at 500 g at 4° C. for 5 minutes, and the supernatant was discarded. Finally, the cells were resuspended in pre-chilled PBS at 200 μL/well. The fluorescence signal values were read using a BD FACS CANTOII flow cytometer or ACEA NovoCyte flow cytometer, and the data were processed and analyzed using FlowJo v10 software (FlowJo, LLC).

human PD-L1 [1] = target: T2, human PD-L1 (human, UniProt Q9NZQ7 19-290); assay: cell-based or functional assay
T2 sequence (Q9NZQ7 19-290): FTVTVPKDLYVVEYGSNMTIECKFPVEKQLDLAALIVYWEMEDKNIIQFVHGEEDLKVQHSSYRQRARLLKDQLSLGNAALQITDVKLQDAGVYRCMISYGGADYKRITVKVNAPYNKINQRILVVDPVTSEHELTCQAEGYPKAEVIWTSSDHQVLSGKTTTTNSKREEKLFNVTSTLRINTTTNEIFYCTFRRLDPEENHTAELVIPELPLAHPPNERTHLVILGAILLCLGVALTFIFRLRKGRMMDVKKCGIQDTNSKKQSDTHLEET

human PD-L1 [2] = target: T2, human PD-L1; assay: FACS, CHO-K1/hPD-L1 cells
Description: (§2) Specifically, the cells expressing PD-L1 were digested and resuspended in PBS buffer containing 2% BSA. The cells were adjusted to a cell density of 1×10⁶ cells/mL, respectively. The cells were seeded in a 96-well V-bottom plate (Corning, #3894) at 100 μL/well, and the antibody to be tested at 2×final concentration with 4-fold concentration gradient dilution was then added at 100 μL/well. The cells were incubated at 4° C. for 2 hours in the dark. After the incubation, the cells were rinsed twice by adding pre-chilled PBS containing 2% BSA at 100 μL/well, and centrifuged at 500 g at 4° C. for 5 minutes, and the supernatant was discarded. […] The cells were washed twice by adding pre-chilled PBS containing 2% BSA at 100 µL/well, and centrifuged at 500 g at 4° C. for 5 minutes, and the supernatant was discarded. Finally, the cells were resuspended in pre-chilled PBS buffer containing 2% BSA at 200 μL/well. The fluorescence signal values were read using a BD FACS CANTOII flow cytometer or ACEA NovoCyte flow cytometer, and the data were processed and analyzed using FlowJo v10 software (FlowJo, LLC).

human CD40 [3] = target: T3, human CD40 (human, UniProt P25942 21-277); assay: FACS, Raji cells
T3 construct: whole, on cells; also called hCD40; TNFRSF5
T3 sequence (P25942 21-277): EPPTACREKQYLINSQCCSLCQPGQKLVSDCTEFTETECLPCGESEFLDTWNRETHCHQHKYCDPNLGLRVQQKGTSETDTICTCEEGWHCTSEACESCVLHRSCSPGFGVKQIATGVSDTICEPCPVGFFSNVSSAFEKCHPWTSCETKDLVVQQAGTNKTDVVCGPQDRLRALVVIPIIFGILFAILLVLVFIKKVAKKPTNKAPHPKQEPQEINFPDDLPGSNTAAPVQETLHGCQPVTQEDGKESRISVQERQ
Description: as §1

human CD40 [4] = target: T3, human CD40; assay: FACS, CHO-K1/hCD40 cells
Description: as §1

cynomolgus monkey PD-L1 = target: T4, cynomolgus monkey PD-L1 (cynomolgus monkey); assay: FACS, CHO-K1/cyPD-L1 cells
T4 construct: whole, on cells; also called cyPD-L1
Description: as §2

human PD-L1 [5] = target: T2, human PD-L1; assay: FACS, NCI-H226 cells
Description: as §2

EC50 (cynomolgus monkey CD40) [nM]	Maximum MFI (cynomolgus monkey CD40) [MFI]	EC50, Jurkat-NFAT-hPD1 reporter (human PD-L1 [1]) [nM]	Maximum (RLU), Jurkat-NFAT-hPD1 reporter (human PD-L1 [1]) [RLU]	EC50 (human PD-L1 [2]) [nM]	Maximum MFI (human PD-L1 [2]) [MFI]	EC50 (human CD40 [3]) [nM]	Maximum MFI (human CD40 [3]) [MFI]	EC50 (human CD40 [4]) [nM]	Maximum MFI (human CD40 [4]) [MFI]	EC50 (cynomolgus monkey PD-L1) [nM]	Maximum MFI (cynomolgus monkey PD-L1) [MFI]	EC50 (human PD-L1 [5]) [nM]	Maximum MFI (human PD-L1 [5]) [MFI]	Binder
2.65	50100	0.295	2560	1.58	20200	1.65	7700	3.83	15000	1.02	4830	1.02	1020	PR007280 (bispecific antibody, human IgG1, kappa, VH of PR006245 (PD-L1) - GS_5 - heavy chain of CD40 IgG PR006504; human IgG1 L234A/L235A/G237A; also called PD-L1×CD40) heavy: QVQLVESGGGVVQPGMSLRLSCAASGFDFSSYGMYWVRQAPGKGQEWVASIRYTGTEKHYADSVKGRFTISRDNSKNTLYLEMNSLRVEDTAVYYCAKNRAIFGVVPDASDIRGQGTMVTVSSGGGGSQVQLVQSGAEVKKPGASVKVSCKASGYTFAGYYMYWVRQAPGQGLEWMGWINPDSGAPTYAQKFQGRVTMTRDTSISTAYMELSRLRSDDTAVYYCAREKIYYGSGNYYPSFDYWGQGTLVTVSSASTKGPSVFPLAPSSKSTSGGTAALGCLVKDYFPEPVTVSWNSGALTSGVHTFPAVLQSSGLYSLSSVVTVPSSSLGTQTYICNVNHKPSNTKVDKKVEPKSCDKTHTCPPCPAPEAAGAPSVFLFPPKPKDTLMISRTPEVTCVVVDVSHEDPEVKFNWYVDGVEVHNAKTKPREEQYNSTYRVVSVLTVLHQDWLNGKEYKCKVSNKALPAPIEKTISKAKGQPREPQVYTLPPSREEMTKNQVSLTCLVKGFYPSDIAVEWESNGQPENNYKTTPPVLDSDGSFFLYSKLTVDKSRWQQGNVFSCSVMHEALHNHYTQKSLSLSPGK light: DIQLTQSPSFLSASVGDRVTITCRASQGISSYLAWYQQKPGKAPKLLIYAASTLQSGVPSRFSGSGSGTEFTLTISSLQPEDFATYYCQQLVSYPWTFGQGTKVEIKRTVAAPSVFIFPPSDEQLKSGTASVVCLLNNFYPREAKVQWKVDNALQSGNSQESVTEQDSKDSTYSLSSTLTLSKADYEKHKVYACEVTHQGLSSPVTKSFNRGEC
2.43	50100	0.188	2480	1.46	20400	1.45	7520	1.88	13500	0.834	4620	0.61	983	PR007282 (bispecific antibody, human IgG1, kappa, VH of PR006247 (PD-L1) - GS_5 - heavy chain of CD40 IgG PR006504; human IgG1 L234A/L235A/G237A; also called PD-L1×CD40) heavy: QVQLVESGGGVVQPGMSLRLSCAASGFDFSSYGMYWVRQAPGKGQEWVASIRYTGTEKHYADSVKGRFTISRDNSKNTLYLEMNSLRVEDTAVYYCAKNRALFGVIPDASDIRGQGTMVTVSSGGGGSQVQLVQSGAEVKKPGASVKVSCKASGYTFAGYYMYWVRQAPGQGLEWMGWINPDSGAPTYAQKFQGRVTMTRDTSISTAYMELSRLRSDDTAVYYCAREKIYYGSGNYYPSFDYWGQGTLVTVSSASTKGPSVFPLAPSSKSTSGGTAALGCLVKDYFPEPVTVSWNSGALTSGVHTFPAVLQSSGLYSLSSVVTVPSSSLGTQTYICNVNHKPSNTKVDKKVEPKSCDKTHTCPPCPAPEAAGAPSVFLFPPKPKDTLMISRTPEVTCVVVDVSHEDPEVKFNWYVDGVEVHNAKTKPREEQYNSTYRVVSVLTVLHQDWLNGKEYKCKVSNKALPAPIEKTISKAKGQPREPQVYTLPPSREEMTKNQVSLTCLVKGFYPSDIAVEWESNGQPENNYKTTPPVLDSDGSFFLYSKLTVDKSRWQQGNVFSCSVMHEALHNHYTQKSLSLSPGK light: DIQLTQSPSFLSASVGDRVTITCRASQGISSYLAWYQQKPGKAPKLLIYAASTLQSGVPSRFSGSGSGTEFTLTISSLQPEDFATYYCQQLVSYPWTFGQGTKVEIKRTVAAPSVFIFPPSDEQLKSGTASVVCLLNNFYPREAKVQWKVDNALQSGNSQESVTEQDSKDSTYSLSSTLTLSKADYEKHKVYACEVTHQGLSSPVTKSFNRGEC
2.58	55500	0.225	4080	1.03	20100	1.28	6560	1.69	14600	0.683	4720	0.452	861	PR007556 (bispecific antibody, human IgG1, kappa, VH of PR006248 (PD-L1) - GS_5 - heavy chain of CD40 IgG PR006496; human IgG1 L234A/L235A/G237A; also called PD-L1×CD40) heavy: QVQLVESGGGVVQPGMSLRLSCAASGFDFSSYGMYWVRQAPGKGQEWVASIRYTGTEKHYADSVKGRFTISRDNSKNTLYLEMNSLRVEDTAVYYCAKNRALFGVIPDDSDIRGQGTMVTVSSGGGGSQVQLVQSGAEVKKPGASVKVSCKASGYTFAGYYMYWVRQAPGQGLEWMGWINPDSGAPTYAQKFQGRVTMTRDTSISTAYMELSRLRSDDTAVYYCAREKIYYGSGNYYPSFDYWGQGTLVTVSSASTKGPSVFPLAPSSKSTSGGTAALGCLVKDYFPEPVTVSWNSGALTSGVHTFPAVLQSSGLYSLSSVVTVPSSSLGTQTYICNVNHKPSNTKVDKKVEPKSCDKTHTCPPCPAPEAAGAPSVFLFPPKPKDTLMISRTPEVTCVVVDVSHEDPEVKFNWYVDGVEVHNAKTKPREEQYNSTYRVVSVLTVLHQDWLNGKEYKCKVSNKALPAPIEKTISKAKGQPREPQVYTLPPSREEMTKNQVSLTCLVKGFYPSDIAVEWESNGQPENNYKTTPPVLDSDGSFFLYSKLTVDKSRWQQGNVFSCSVMHEALHNHYTQKSLSLSPGK light: DIQLTQSPSFLSASVGDRVTITCRASQGISSYLAWYQQKPGKAPKLLIYAASTLQSGVPSRFSGSGSGTEFTLTISSLQPEDFATYYCQQLFSYPWTFGQGTKVEIKRTVAAPSVFIFPPSDEQLKSGTASVVCLLNNFYPREAKVQWKVDNALQSGNSQESVTEQDSKDSTYSLSSTLTLSKADYEKHKVYACEVTHQGLSSPVTKSFNRGEC
3.63	65000	0.19	3840	1.13	19900	1.46	7600	2.13	14200	0.632	4610	0.503	921	PR007281 (bispecific antibody, human IgG1, kappa, VH of PR006246 (PD-L1) - GS_5 - heavy chain of CD40 IgG PR006504; human IgG1 L234A/L235A/G237A; also called PD-L1×CD40) heavy: QVQLVESGGGVVQPGMSLRLSCAASGFDFSSYGMYWVRQAPGKGQEWVASIRYTGTEKHYADSVKGRFTISRDNSKNTLYLEMNSLRVEDTAVYYCAKNRAIFGVIPDDSDIRGQGTMVTVSSGGGGSQVQLVQSGAEVKKPGASVKVSCKASGYTFAGYYMYWVRQAPGQGLEWMGWINPDSGAPTYAQKFQGRVTMTRDTSISTAYMELSRLRSDDTAVYYCAREKIYYGSGNYYPSFDYWGQGTLVTVSSASTKGPSVFPLAPSSKSTSGGTAALGCLVKDYFPEPVTVSWNSGALTSGVHTFPAVLQSSGLYSLSSVVTVPSSSLGTQTYICNVNHKPSNTKVDKKVEPKSCDKTHTCPPCPAPEAAGAPSVFLFPPKPKDTLMISRTPEVTCVVVDVSHEDPEVKFNWYVDGVEVHNAKTKPREEQYNSTYRVVSVLTVLHQDWLNGKEYKCKVSNKALPAPIEKTISKAKGQPREPQVYTLPPSREEMTKNQVSLTCLVKGFYPSDIAVEWESNGQPENNYKTTPPVLDSDGSFFLYSKLTVDKSRWQQGNVFSCSVMHEALHNHYTQKSLSLSPGK light: DIQLTQSPSFLSASVGDRVTITCRASQGISSYLAWYQQKPGKAPKLLIYAASTLQSGVPSRFSGSGSGTEFTLTISSLQPEDFATYYCQQLVSYPWTFGQGTKVEIKRTVAAPSVFIFPPSDEQLKSGTASVVCLLNNFYPREAKVQWKVDNALQSGNSQESVTEQDSKDSTYSLSSTLTLSKADYEKHKVYACEVTHQGLSSPVTKSFNRGEC
